Here are results for 1 substance from patent US8961929B2, “Targeting agent for tumor site” (FUJIFILM Corporation, priority 2010, dated 2015).

A short description of the data set: Isoelectric point of gelatin. Format: physicochemical. Particulars: recombinant gelatin CBE3.

For “CBE3: recombinant gelatin, SEQ ID NO: 1, Gly-Ala-Pro[(Gly-X-Y)63]3Gly, 571 amino acids, 12 RGD sequences”, the Isoelectric point was 9.34.
